Reference: paper PMC11965310, “Inhibition of tau neuronal internalization using anti-tau single domain antibodies” (Nature Communications, 2025)

T1: tau[369–381] C-terminal peptide (Homo sapiens)
T1 construct: also called tau-C-ter peptide; tau-Cter peptide
T1 chain: KKIETHKLTFREN

B1: VHH E2-2 (VHH)
VHH: EVQLQASGGGFVQPGGSLRLSCAASGSTYDFDAMGWFRQAPGKEREFVSAISGDADLARYYADSVKGRFTISRDNSKNTVYLQMNSLRAEDTATYYCAAFRHEVHGSMRHEWEVIKYWGQGTQVTVSS
notes: From the Nali-H1 VHH library; source: E. coli periplasm, purified (IMAC, SEC, TEV cleavage, second IMAC); not shown: His6, N-terminal, cleaved
B2: biotinylated VHH E2-2 with a cysteine at the C-terminus (VHH)
VHH: B1 VHH
notes: as the VHH chain of m11; additional C-terminal cysteine; source: E. coli periplasm, purified (IMAC, SEC, TEV cleavage, second IMAC); not shown: His6, N-terminal, cleaved
B3: VHH F8-2 (VHH)
VHH: EVQLQASGGGFVQPGGSLRLSCAASGGTSYWDGMGWFRQAPGKEREFVSAISGRGNIGTYYADSVKGRFTISRDNSKNTVYLQMNSLRAEDTATYYCAAFRHEVHGSMRHEWEVIKYWGQGTQVTVSS
notes: source: E. coli periplasm, purified (IMAC, SEC, TEV cleavage, second IMAC); not shown: His6, N-terminal, cleaved
B4: VHH H3-2 (VHH)
VHH: EVQLQASGGGFVQPGGSLRLSCAASGYTSGDEIMGWFRQAPGKEREFVSAISWQSGTSTYYADSVKGRFTISRDNSKNTVYLQMNSLRAEDTATYYCAPMTLAETYYEWLISGYWGQGTQVTVSS
notes: From the Nali-H1 VHH library; Forms a swapped dimer in the crystal and mostly a dimer in SEC at 20 µM; Coupled to 10 nm gold beads for electron microscopy; source: E. coli periplasm, purified (IMAC, SEC, TEV cleavage, second IMAC); not shown: His6, N-terminal, cleaved
B5: biotinylated VHH H3-2 with a cysteine at the C-terminus (VHH)
VHH: B4 VHH
notes: as the VHH chain of m8; additional C-terminal cysteine; source: E. coli periplasm, purified (IMAC, SEC, TEV cleavage, second IMAC); not shown: His6, N-terminal, cleaved
B6: 6His-VHH H3-2 (VHH)
VHH: B4 VHH
notes: as the VHH chain of m8; The construct has a TEV site between the 6-His tag and the VHH; also called 6Histag-H3-2; source: E. coli periplasm, purified; not shown: His6, N-terminal, kept

Legend:
Conditions in all cases: both partners purified
tau2N4R = molecular target: T2, tau2N4R (Homo sapiens, UniProt P10636-8, biotin (NHS-biotin, 3 molar excess) when immobilised in SPR; 15N-labelled in NMR); assay: SPR; biotinylated tau2N4R, tau1N4R or tauMTBD captured on a streptavidin (SA) chip; VHHs without tag as analytes, 0.0625-4 μM, single-cycle kinetics; 25 °C, HBS EP+; 1:1 Langmuir model
T2 construct: tau protein, isoform 2N4R, the largest tau isoform; Expressed from pET15b-tau2N4R; also called full-length tau2N4R; largest tau isoform; source: E. coli BL21 (DE3), purified (heating at 75 °C, cation exchange)
T2 sequence (P10636 other isoform, or with tags, fused parts or gaps): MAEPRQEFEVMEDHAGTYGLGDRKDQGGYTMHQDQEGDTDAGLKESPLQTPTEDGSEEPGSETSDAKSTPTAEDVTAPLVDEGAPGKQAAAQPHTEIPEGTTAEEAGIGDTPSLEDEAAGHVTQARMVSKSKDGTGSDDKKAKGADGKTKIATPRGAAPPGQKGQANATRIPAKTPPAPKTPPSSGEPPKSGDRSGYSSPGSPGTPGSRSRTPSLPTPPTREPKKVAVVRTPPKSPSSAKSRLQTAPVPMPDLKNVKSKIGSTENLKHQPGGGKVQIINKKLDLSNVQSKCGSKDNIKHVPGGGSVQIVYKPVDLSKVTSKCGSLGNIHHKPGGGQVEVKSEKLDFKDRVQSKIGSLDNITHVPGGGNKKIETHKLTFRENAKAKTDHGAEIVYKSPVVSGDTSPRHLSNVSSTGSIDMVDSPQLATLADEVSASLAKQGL

tau1N4R = molecular target: T3, tau1N4R (Homo sapiens, UniProt P10636-7, biotin (NHS-biotin, 3 molar excess) when immobilised in SPR; Alexa Fluor 546 C5-maleimide on its two native cysteine residues in the uptake assay); assay: as above
T3 construct: tau protein, isoform 1N4R; Used without a stated label as analyte on LRP1 cluster III; also called full-length tau1N4R; monomeric tau1N4R; source: E. coli BL21 (DE3), purified (heating at 75 °C, cation exchange)
T3 sequence (P10636 other isoform, or with tags, fused parts or gaps): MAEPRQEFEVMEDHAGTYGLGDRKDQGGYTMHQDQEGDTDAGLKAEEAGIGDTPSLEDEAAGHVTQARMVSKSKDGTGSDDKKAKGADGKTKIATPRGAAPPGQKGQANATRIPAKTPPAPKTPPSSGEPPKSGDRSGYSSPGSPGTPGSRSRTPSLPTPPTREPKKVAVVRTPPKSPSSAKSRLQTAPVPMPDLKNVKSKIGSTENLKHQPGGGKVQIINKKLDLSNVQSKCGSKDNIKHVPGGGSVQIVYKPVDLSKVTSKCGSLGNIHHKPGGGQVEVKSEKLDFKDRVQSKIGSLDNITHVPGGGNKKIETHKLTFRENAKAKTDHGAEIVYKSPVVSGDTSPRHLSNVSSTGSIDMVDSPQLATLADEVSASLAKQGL

tauMTBD = molecular target: T4, tauMTBD (Homo sapiens, UniProt P10636, biotin (NHS-biotin, ratio 1:0.5) when immobilised in SPR; Atto488 NHS ester in the uptake assay); assay: as above
T4 construct: also called tauMTBD fragment; source: E. coli BL21 (DE3), purified (heating at 75 °C, cation exchange)
T4 sequence (P10636 whole entry, looked up, the tested form may be a part): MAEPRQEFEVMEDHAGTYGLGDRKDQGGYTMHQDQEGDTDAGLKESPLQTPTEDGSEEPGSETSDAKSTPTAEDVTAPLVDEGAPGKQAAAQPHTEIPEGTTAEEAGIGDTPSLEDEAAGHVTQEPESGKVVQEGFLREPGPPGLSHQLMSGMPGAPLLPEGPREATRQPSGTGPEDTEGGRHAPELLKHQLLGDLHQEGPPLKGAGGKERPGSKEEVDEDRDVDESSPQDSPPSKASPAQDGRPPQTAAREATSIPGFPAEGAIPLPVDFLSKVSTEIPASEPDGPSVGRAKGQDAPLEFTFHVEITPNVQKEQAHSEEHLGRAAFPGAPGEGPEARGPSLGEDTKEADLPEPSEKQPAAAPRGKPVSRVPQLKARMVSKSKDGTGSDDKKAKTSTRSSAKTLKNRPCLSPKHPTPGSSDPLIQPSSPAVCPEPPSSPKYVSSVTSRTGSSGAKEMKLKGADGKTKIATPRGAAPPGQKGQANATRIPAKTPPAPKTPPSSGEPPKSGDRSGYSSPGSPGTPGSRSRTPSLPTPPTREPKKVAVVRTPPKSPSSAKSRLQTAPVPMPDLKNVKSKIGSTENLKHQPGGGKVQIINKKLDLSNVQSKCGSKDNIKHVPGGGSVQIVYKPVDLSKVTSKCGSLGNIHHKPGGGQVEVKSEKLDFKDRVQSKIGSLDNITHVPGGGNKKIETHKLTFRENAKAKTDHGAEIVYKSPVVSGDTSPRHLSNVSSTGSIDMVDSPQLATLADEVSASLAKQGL

[1] = molecular target: T1, tau[369–381] C-terminal peptide; assay: SPR; same data as the multi-cycle kinetics; steady-state analysis of maximum responses, one-site specific binding model
[2] = molecular target: T1, tau[369–381] C-terminal peptide; assay: SPR; biotinylated VHH-Cys captured on SA chip; tau[369-381] peptide as analyte, multi-cycle kinetics; 25 °C, HBS EP+; kinetic analysis, 1:1 Langmuir model
[3] = molecular target: T1, tau[369–381] C-terminal peptide; assay: SPR; same data as the multi-cycle kinetics; steady-state analysis of maximum responses, one-site specific binding model
[4] = molecular target: T1, tau[369–381] C-terminal peptide; assay: SPR; biotinylated VHH-Cys captured on SA chip; tau[369-381] peptide as analyte, multi-cycle kinetics; 25 °C, HBS EP+; kinetic analysis, 1:1 Langmuir model
[5] = molecular target: T1, tau[369–381] C-terminal peptide; assay: AlphaScreen or HTRF; 6His-VHH bound by anti-6His antibody-Terbium (1.5 nM) and 6His-VHH bound by anti-6His antibody-D2 (20 nM); tau-Cter peptide 32 nM to 100 µM; 1 h at room temperature

Binder	Kd (tau2N4R)	koff (tau2N4R)	kon (tau2N4R)	Kd (tau1N4R)	koff (tau1N4R)	kon (tau1N4R)	binding result (tauMTBD)	Kd [1]	Kd [2]	koff [2]	kon [2]	Kd [3]	stoichiometry N [3]	Kd [4]	EC50 [5]
B1	84 nM	0.0038 s⁻¹	44900 M⁻¹ s⁻¹	96 nM	0.0045 s⁻¹	46700 M⁻¹ s⁻¹	no binding (tested: 4 μM)								
B2								518 to 820 nM	820 nM	0.124 s⁻¹	154000 M⁻¹ s⁻¹	578 nM	0.45		
B3	753 nM	0.04 s⁻¹	53100 M⁻¹ s⁻¹	740 nM	0.0425 s⁻¹	57500 M⁻¹ s⁻¹									
B4	8.9 nM	0.0056 s⁻¹	630000 M⁻¹ s⁻¹	11 nM	0.006 s⁻¹	554000 M⁻¹ s⁻¹	no binding (tested: 4 μM)								
B5									280 nM	0.071 s⁻¹	192000 M⁻¹ s⁻¹	297 nM	0.41	297 to 380 nM	
B6															2700 nM
